The text below walks through data of publication PMC8596017, “Evolutionary mode for the functional preservation of fast-evolving Drosophila telomere capping proteins” (Open Biology, 2021).

As a reminder, the Kd is the concentration at which binding is half-saturated. Usually stoichiometry N stands for a count of units in the complex or per binding partner.

For data set [1], the system named is Ver (wild type);Moi (Drosophila melanogaster;Drosophila melanogaster). In words: BLI. Conditions: PBS + 0.05% Tween 20, BLI and EMSA: PBS (137 mM NaCl, 2.7 mM KCl, 10 mM Na2HPO4, 1.8 mM KH2PO4) + 0.05% Tween 20, EMSA 15 min at room temperature, 20 fmol ssDNA, pull-down: 4 C …. On the technique in general: A gel shift assay detects complexes by their altered migration in electrophoresis.

Data set [2] shares this test system. The data set can be described thus: pull-down. Particulars: reference; BLI and EMSA: PBS (137 mM NaCl, 2.7 mM KCl, 10 mM Na2HPO4, 1.8 mM KH2PO4) + 0.05% Tween 20, EMSA 15 min at room temperature, 20 fmol ssDNA; pull-down: 4 C ….
The target of data set [3] is M1-Ver (Ver with the Group 1 uncharacterized helices deleted), Flag-tagged (D. melanogaster) (UniProt Q9VTZ2). The data set can be described thus: co-IP; Flag immune-affinity purification: heparin-sepharose fractions loaded on anti-FLAG M2 affinity matrix, washed with buffer I (25 mM Tris HCl pH 7.5, 100 mM NaCl, 1 mM CaCl2, 1 mM MgCl2) or PBS, eluted with 3× Flag peptide.

Data set [4] addresses M3-Ver (Ver with the putative DNA binding surface, Group 3, partially deleted), Flag-tagged (D. melanogaster) (UniProt Q9VTZ2). The description is as above.
The target of data set [5] is T1, Verrocchio (Ver), wild type, Flag-tagged (D. melanogaster, UniProt Q9VTZ2 1-214).
T1 construct: Verrocchio (Ver), Terminin subunit of D. melanogaster; also called wild-type Ver; source: Arctic express cells (DE3), co-expressed with Moi-HA from a bicistronic pET vector; cell lysate, heparin-sepharose fractions, anti-FLAG M2 eluate; not shown: Flag, N-terminal, kept
T1 sequence (looked up): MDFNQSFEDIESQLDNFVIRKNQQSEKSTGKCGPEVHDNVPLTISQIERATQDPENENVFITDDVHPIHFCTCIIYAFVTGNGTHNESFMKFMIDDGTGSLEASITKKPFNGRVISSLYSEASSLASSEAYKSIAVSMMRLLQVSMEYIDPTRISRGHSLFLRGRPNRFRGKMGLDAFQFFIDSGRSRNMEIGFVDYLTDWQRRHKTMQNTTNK
The data set is described as above. Particulars: partners not purified.

As for 80 nt ssDNA, the Kd in data set [1] (Kd1, heterogeneous ligand (2:1) model) came out at 129 nM; in data set [1] (Kd2, heterogeneous ligand (2:1) model) it was 1570 nM. In addition, in data set [2], the binding signal (fraction of Moi eluted from ssDNA) is 1.

B1: Modigliani (Moi), HA-tagged at the C-terminus (natural protein, D. melanogaster, UniProt B7Z0L8 1-178, looked up)
chain: MSLVPEASTSRAPKYCYFFKTLLVEELELETSYHNLHYGQCALIGRLAFKANQYRLENVRVKCLPKKYSLGEGTVSLLILGLTHDKVVENRVSTGRYCIVRGEVVLHNVQHPKGAKLTAGGVYDKINSLSNDPLAQKQYLSALLATYRPAIDLWYIQVIDRAEDLLTRRLEMRSLIEK
notes: DTL/Modigliani (Moi), Terminin subunit of D. melanogaster; also called DTL; source: Arctic express cells (DE3), co-expressed with Ver from a bicistronic pET vector; cell lysate, heparin-sepharose fractions, anti-FLAG M2 eluate; not shown: HA, C-terminal, kept
As to B1, the values for the stoichiometry N in data set [3], in data set [4] and in data set [5] were 1, 1 and around 1, respectively.
